In patent US12134663B2, “Cationic peptides for activating Lck” (Interk Peptide Therapeutics Limited, priority 2018, dated 2024):
“Also recorded” adds a separate entry of the source. Where a SMILES comes first, the peptide text is derived from it. Where no end group is shown, it is not given here. [ ]: non-standard residue; d: D form. ξ: configuration not given here. ξGly(decyl) = CCCCCCCCCCC(N)C(=O)O; 2Adod = 2-amino-dodecanoic acid

Experiments:
[1] = test system: K562 cells; experiment: Specific cytotoxicity of Calcein-AM stained K562 cells in PBMC co-culture; type: cell-based; settings: PBMC pre-treated 0.08-1.25 μM 48 hrs, 5:1 ratio, 4 hrs; greater than IFN-α 2A; data not shown
Protocol: In brief, PBMC were incubated for 48 hrs then co-cultured together with Calcein AM stained K562 cells stimulated with or without human recombinant IFN-α 2A (5 ng/mL) for 4 hrs. Supernatants were assessed for Calcein green fluorescence intensity using the GloMax® Discover and percentage specific cytotoxicity was calculated. Data shown indicates mean percentage specific cytotoxicity +/− SEM, n=4. Data were analysed by paired t test in comparison to the vehicle control, *p<0.05.
PBMC were also pre-treated with or without the Lck activating polypeptides RSKAKNPLY-RRRRRRRRR (SEQ ID NO: 24, IK14800), RVKVKVVVV-RRRRRRRRR (SEQ ID NO: 58, IK15800), RSKAKNPLY-RRRRRRRRR-(2Adod)4-NH2 (SEQ ID NO: 65, IK14804) and RVKVKVVVV-RRRRRRRRR-(2Adod)4-NH2 (SEQ ID NO: 66, IK15804) (0.08-1.25 μM) for 48 hrs, then co-cultured with Calcein AM stained K562 cells at a 5:1 ratio and incubated for a further 4 hrs. Supernatants were assessed for Calcein green fluorescence intensity using the GloMax® Discover and percentage specific cytotoxicity was calculated. Data shown indicates mean percentage specific cytotoxicity +/− SEM, n=4. Data were analysed by repeated measures two-way ANOVA with Holm-Sidak's post-test comparing peptide treatment with vehicle control, *p<0.05, **P<0.01, ***P<0.001, ****p<0.0001.

[2] = test system: wild-type Jurkat cells; experiment: IL-2 secretion in stimulated wild-type Jurkat cells (ELISA); type: cell-based, human; settings: biotinylated anti-CD3, anti-CD28, avidin; 48 h exposure
Protocol: In brief, wild-type Jurkat cells (an immortalised line of human T lymphocyte cells) were stimulated by exposure to biotinylated anti-CD3 antibody in the presence of anti-CD28 antibody and avidin. During the culture period (48 hours or 72 hours) cells were exposed to test polypeptides. Cell supernatant was assayed for IL-2 at the end of 48 or 72 hours using a standard commercially available ELISA kit as described above.
In brief, cells were seeded at 1 million cells per well (12 well plate, 2 mL volume) and stimulated with Biotin-CD3, CD28, and avidin (5:5:1.25 μg). The cells were then treated with IK14804, and then incubated for 48 hours at 37° C. The supernatant (100 uL, n=3), was then analyzed for IL-2 content.
In brief, wild-type Jurkat cells (am immortalised line of human T lymphocyte cells) were stimulated by exposure to biotinylated anti-CD3 antibody in the presence of anti-CD28 antibody and avidin. Cells were seeded at 1 million cells per well (12 well plate, 2 mL volume) and stimulated with Biotin-anti-CD3, anti-CD28, and avidin (5:5:1.25 μg). Cells were treated with the test peptides and then incubated for 48 hours at 37° C. The supernatants (100 ul, n=3), were then analysed for IL-2 and IL-12 content. During the culture period (48 hours) cells were exposed to test polypeptide RSKAKNPLYR-(2Adod)4-NH2 (SEQ ID NO: 128). Cell supernatant was assayed for IL-2 and IL-12 at the end of 48 hours using standard commercially available ELISA kit as described above.

[3] = biological target: T1, Lck (Homo sapiens, UniProt P06239); experiment: In vitro Lck activation kinase study (Eurofins); type: biochemical; settings: for Lck activation (in words): peptide 1 μM where stated
T1 construct: purchased Eurofins Pharma Discovery Services UK Limited
T1 sequence (P06239 whole entry): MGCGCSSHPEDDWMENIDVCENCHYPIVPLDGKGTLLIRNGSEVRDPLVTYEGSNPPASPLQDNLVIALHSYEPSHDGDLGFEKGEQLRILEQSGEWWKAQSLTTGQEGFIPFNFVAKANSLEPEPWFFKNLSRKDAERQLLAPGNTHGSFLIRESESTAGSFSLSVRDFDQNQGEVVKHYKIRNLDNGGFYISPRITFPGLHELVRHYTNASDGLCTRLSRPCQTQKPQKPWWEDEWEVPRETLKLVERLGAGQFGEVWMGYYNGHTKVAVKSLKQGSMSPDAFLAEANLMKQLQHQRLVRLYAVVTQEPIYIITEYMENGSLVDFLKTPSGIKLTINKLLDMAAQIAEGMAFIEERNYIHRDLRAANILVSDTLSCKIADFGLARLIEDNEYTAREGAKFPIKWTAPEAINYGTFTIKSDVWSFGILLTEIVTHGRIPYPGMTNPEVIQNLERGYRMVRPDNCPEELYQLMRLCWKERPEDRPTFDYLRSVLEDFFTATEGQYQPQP
Protocol: The ability of polypeptides of the present invention to activate Lck was examined in vitro. Lck is member of the Src family of tyrosine kinases. […] All results in are percentage Lck activity relative to control (100%).
Test polypeptides were assessed at a concentration of 1.0 μM.
The ability of polypeptides of the present invention to activate Src family kinases was examined in vitro. Kinase activation studies utilising peptides were carried out as described in Example 1, and all kinase activity values are shown as percentage relative to control.
The ability of polypeptides comprising both lysine and arginine to activate Lck in vitro was examined. Lck activation studies utilising peptides were carried out as described in Example 1, and all kinase activity values are shown as percentage relative to control.

[4] = biological target: T1, Lck; experiment: Lck Activity above control (1 µM) | Lck
Protocol: (§1) Table printed on a drawing sheet, FIG. 2
Head of the field: Lck Activity above control (1 µM) | Lck
(§2) First copying reader's note: Kinase activity above control for each Src family kinase at 1 µM peptide; the cell for IK00800/Fgr is printed as '%' without a digit.
Where the first naming reader finds the target: head: Lck Activity above control (1 µM) | Lck

[5] = test system: Fgr; experiment: Lck Activity above control (1 µM) | Fgr
Protocol: as §1
Head of the field: Lck Activity above control (1 µM) | Fgr
as §2
Where the first naming reader finds the target: head: Lck Activity above control (1 µM) | Fgr

[6] = biological target: T2, Lck(h) (Homo sapiens, UniProt P06239); experiment: Western blot of Lck phosphorylation (4G10 and anti-pY394 antibodies); type: biochemical; settings: peptide 1 and 10 μM, with ATP, 40 minutes
T2 construct: purchased Eurofins Pharma Discovery Services UK Limited
T2 sequence (P06239 whole entry): as above
Protocol: Western blot studies were performed by Eurofins Pharma Discovery Services UK Limited (Dundee, United Kingdom). […] Reactions were allowed to proceed for 40 minutes at room temperature before being stopped by the addition of SDS-sample buffer. In each case the Lck enzyme was diluted to yield 20 ng per 25 μl reaction. Appropriate controls in the absence of compound and peptide were also run as well as an untreated sample of both the Lck(h) and Lck(h) activated kinases. The resulting samples were then subjected to SDS-PAGE and western blot analysis using the antibodies 4G10 (anti-phospho-tyrosine antibody) (see FIG. 3) and anti-pY394 Lck (R&D Systems MAB7500) (see FIG. 2). An additional blot using the secondary detection antibody (anti-mouse-HRP) was also performed. The membranes were stained by Ponceau S to verify sample loading and effective protein transfer. The 4G10 antibody is a general anti-phospho-tyrosine antibody and there are several tyrosine residues in Lck but only one auto-phosphorylating tyrosine residue, i.e., at position Y394. […] Samples were as follows (numbers correspond to the lanes on the gel): • 1. Molecular weight markers • 2. Standard Lck • 3. Standard Lck+peptide substrate+ATP (no test peptide) • 4. Standard Lck−peptide substrate+ATP (no test peptide) • 5. Standard Lck+ATP+10Arg peptide (SEQ ID NO: 7, IK00100; 1 μM) (no peptide substrate) • 6. Standard Lck+ATP+10 Arg peptide (SEQ ID NO: 7, IK00100; 10 μM) (no peptide substrate) • 7. Standard Lck+ATP+8 Arg peptide (SEQ ID NO: 4, IK00800; 1 μM) (no peptide substrate) • 8. Standard Lck+ATP+8 Arg peptide (SEQ ID NO: 41K00800; 10 μM) (no peptide substrate) • 9. 10 Arg (SEQ ID NO: 7, IK00100) (10 μM) (test peptide only) • 10. 8 Arg (SEQ ID NO: 4, IK00800) (10 μM) (test peptide only)
The steps of the western blot protocol were as below: • SDS-PAGE gel: 50 minutes at 200V • Western blot transfer: 90 minutes at 25V • Membrane: Nitrocellulose Pre-Cut Blotting Membranes 0.2 μm pore size (LC2000 (Life Tech)) • Ponceau stain: 0.1% Ponceau S (w/v) in 5% acetic acid • The membrane was blocked with 10 mL PBST and 10% BSA for 1 hour before application of primary and secondary antibodies. Primary Antibodies: • 1. Anti-4G10 (Millipore 05-777) 1/1000 in PBST with overnight incubation at 4° C. followed by washing with 4×20 mL PBST. • 2. Anti-pY394 Lck (R&D Systems) 1/2500 in PBST with overnight incubation at 4° C. followed by washing with 4×20 mL PBST. Secondary Antibody:
Anti-mouse-hrp (Sigma A5278) 1/5000 in PBST followed by washing with 4×20 mL PBST for 5 hours on a spiral shaker at room temperature. Detection was performed via SuperSignal ELISA Pico Chemiluminescent Substrate—37070 (Pierce).

Compound	percentage of specific cytotoxicity [1]	Lck Activity above control (1 µM) | Lck [4] [%]	Lck Activity above control (1 µM) | Fgr [5] [%]	also measured
CCCCCCCCCCC(NC(=O)C(CCCCCCCCCC)NC(=O)C(CCCCCCCCCC)NC(=O)C(CCCCCCCCCC)NC(=O)[C@H](CCCNC(=N)N)NC(=O)[C@H](CCCNC(=N)N)NC(=O)[C@H](CCCNC(=N)N)NC(=O)[C@H](CCCNC(=N)N)NC(=O)[C@H](CCCNC(=N)N)NC(=O)[C@H](CCCNC(=N)N)NC(=O)[C@H](CCCNC(=N)N)NC(=O)[C@H](CCCNC(=N)N)NC(=O)[C@H](CCCNC(=N)N)NC(=O)[C@@H](NC(=O)[C@@H](NC(=O)[C@@H](NC(=O)[C@@H](NC(=O)[C@H](CCCCN)NC(=O)[C@@H](NC(=O)[C@H](CCCCN)NC(=O)[C@@H](NC(=O)[C@@H](N)CCCNC(=N)N)C(C)C)C(C)C)C(C)C)C(C)C)C(C)C)C(C)C)C(N)=O (some centres unmarked) [IK15804, RVKVKVVVVR-RRRRRRRR-(2Adod)4-NH2] (H-RVKVKVVVVRRRRRRRRR[ξGly(decyl)][ξGly(decyl)][ξGly(decyl)][ξGly(decyl)]-NH2)	increased the percentage of specific cytotoxicity	–	–	–
RSKAKNPLY [IK94000]	–	–	–	IL-2 secretion relative to control [2]: increase IL-2 secretion; Lck activation (in words) [3]: no Lck activation; Lck activation (in words) ([3]; listed as IK09400): do not activate Lck
RRRRRRRR [IK00800] [listing 1 of 2 here]	–	126	–	–
RRRRRRRRRR [IK00100] [listing 1 of 2 here]	–	389	0	–
RVKVKVVVVRRRRRRRRR-NH2 [IK15800, RVKVKVVVV-RRRRRRRRR]	increased the percentage of specific cytotoxicity	–	–	–
RSKAKNPLYR (RSKAKNPLYR-{2Adod-2Adod-2Adod-2Adod-NH2}) [IK14000]	–	–	–	IL-2 secretion relative to control [2]: increase IL-2 secretion; Lck activation (in words) [3]: do not activate Lck; Lck activation (in words) ([3]; listed as RSKAKNPLYR): no Lck activation
RSKAKNPLY-RRRRRRRRR-NH2 (RSKAKNPLYRRRRRRRRR-NH2) [IK14800]	–	578	0	–
HHHHHHHHHH [10His]	–	0	0	–
CCCCCCCCCCC(NC(=O)C(CCCCCCCCCC)NC(=O)C(CCCCCCCCCC)NC(=O)C(CCCCCCCCCC)NC(=O)[C@H](CCCNC(=N)N)NC(=O)[C@H](CCCNC(=N)N)NC(=O)[C@H](CCCNC(=N)N)NC(=O)[C@H](CCCNC(=N)N)NC(=O)[C@H](CCCNC(=N)N)NC(=O)[C@H](CCCNC(=N)N)NC(=O)[C@H](CCCNC(=N)N)NC(=O)[C@H](CCCNC(=N)N)NC(=O)[C@H](CCCNC(=N)N)NC(=O)[C@H](Cc1ccc(O)cc1)NC(=O)[C@H](CC(C)C)NC(=O)[C@@H]1CCCN1C(=O)[C@H](CC(N)=O)NC(=O)[C@H](CCCCN)NC(=O)[C@H](C)NC(=O)[C@H](CCCCN)NC(=O)[C@H](CO)NC(=O)[C@@H](N)CCCNC(=N)N)C(N)=O (some centres unmarked) [IK14804, RSKAKNPLYR-RRRRRRRR-(2Adod)4-NH2] (H-RSKAKNPLYRRRRRRRRR[ξGly(decyl)][ξGly(decyl)][ξGly(decyl)][ξGly(decyl)]-NH2)	increased the percentage of specific cytotoxicity	–	–	–
RRRRRRRRRR [IK00100] [listing 2 of 2 here]	–	–	–	phosphorylation at Y394 of Lck (anti-pY394 antibody) ([6]; listed as 10 Arg): significant increase in the level of phosphorylation; level of phosphorylation on Lck (anti-phospho tyrosine 4G10 antibody) ([6]; listed as 10Arg): significant increase in the level of phosphorylation; also recorded: increased with increasing concentrations; phosphorylation at Y394 of Lck (anti-pY394 antibody) ([6]; listed as 10Arg): Increased auto-phosphorylation was associated with increasing concentration
RRRRRRRR [IK00800] [listing 2 of 2 here]	–	–	–	phosphorylation at Y394 of Lck (anti-pY394 antibody) ([6]; listed as 8 Arg): significant increase in the level of phosphorylation; level of phosphorylation on Lck (anti-phospho tyrosine 4G10 antibody) ([6]; listed as 8Arg): significant increase in the level of phosphorylation; also recorded: increased with increasing concentrations; phosphorylation at Y394 of Lck (anti-pY394 antibody) ([6]; listed as 8Arg): Increased auto-phosphorylation was associated with increasing concentration
RVKVKVVVV-RRRRRRRRR (RVKVKVVVVRRRRRRRRR) [IK15800]	–	593	0	–
RSKAKNPLYRRRRRRRRR-NH2 [IK14800, RSKAKNPLY-RRRRRRRRR-NH2]	increased the percentage of specific cytotoxicity	–	–	Lck activation ([3]; peptide 1 μM, relative to control): 496%
